{"source": "paper doi:10.1101/686782", "assay_in_all_cases": "cryo-EM structure", "key": {"[1]": {"target": "V. mimicus FliPQR complex (FliP5Q4R1) (Vibrio mimicus)"}, "[2]": {"target": "V. mimicus FliP (Vibrio mimicus)"}, "[3]": {"target": "V. mimicus FliQ (Vibrio mimicus)"}}, "data": [{"substance": "V. mimicus FlhB (natural protein)", "values": [{"measurement": "stoichiometry N", "setting": "[1]", "result": 1}]}, {"substance": "V. mimicus FliP (natural protein)", "values": [{"measurement": "stoichiometry N", "setting": "[2]", "result": 5}]}, {"substance": "V. mimicus FliQ (natural protein)", "values": [{"measurement": "stoichiometry N", "setting": "[3]", "result": 4}]}]}
